From paper PMC4428900 come the findings set out here.

The target in assay [1] is NS4B (genotype 1b) fused to mCherry (Hepatitis C virus genotype 1b) (UniProt Q9WMX2). Briefly: FRET or BRET.
For assay [2], the target named is NS4B (genotype 1b) fused to GFP (Hepatitis C virus genotype 1b) (UniProt Q9WMX2). Briefly: FRET or BRET.
Assay [3] concerns the target NS4B (genotype 2a) fused to mCherry (Hepatitis C virus genotype 2a) (UniProt Q99IB8). Nature of the assay: FRET or BRET.
The target in assay [4] is NS4B (genotype 2a) W204A fused to mCherry (Hepatitis C virus genotype 2a). Briefly: FRET or BRET.
For assay [5], the target named is NS4B (genotype 2a) fused to mCherry (Hepatitis C virus genotype 2a) (UniProt Q99IB8). Nature of the assay: FRET or BRET. This is another data set of the same source.
Assay [6] deals with pBIND-NS4B C-terminal domain W204A (Hepatitis C virus genotype 2a). Briefly: two-hybrid.

Where two headings read alike, the source gives them in different places.

With “NS4B (genotype 1b) fused to GFP (from UniProt Q9WMX2 1712-1972) (natural protein)”, the mean FRET efficiency (EF) in assay [1] was 6.6.
Substance “NS5A (genotype 1b) fused to mCherry (from UniProt Q9WMX2 1973-2419) (natural protein)” gave a mean FRET efficiency (EF) in assay [2] of 6.
As to “NS5A (genotype 2a) a.a. 1–352 fused to GFP (domain or fragment)”, the mean FRET efficiency (Ef) in assay [3] was found to be 9.3.
In the case of “NS5A (genotype 2a) fused to GFP (from UniProt Q99IB8 1977-2442) (natural protein)”, the mean FRET efficiency (Ef) came to 1.3 in assay [4], 6.5 in assay [5] and 9.6 in assay [3]. Further, the mean FRET efficiency (EF) in assay [1] came out at 6.5; in assay [3], 5.5.
For the substance “pACT-NS5A (full length NS5A of genotype 2a fused to VP16) (from UniProt Q99IB8 1977-2442) (natural protein)”, the reduction in luciferase activity compared to the wild type in assay [6] worked out at 30%.
